Data taken from PMC12443476 (eLife, 2025).

Target: T1, biotinylated Tom70 (109-600) with N-terminal AVI tag (human, UniProt O94826 109-600, biotin (AVI tag, by co-expressed BirA))
T1 construct: also called biotin-Tom70; immobilized Tom70
T1 sequence: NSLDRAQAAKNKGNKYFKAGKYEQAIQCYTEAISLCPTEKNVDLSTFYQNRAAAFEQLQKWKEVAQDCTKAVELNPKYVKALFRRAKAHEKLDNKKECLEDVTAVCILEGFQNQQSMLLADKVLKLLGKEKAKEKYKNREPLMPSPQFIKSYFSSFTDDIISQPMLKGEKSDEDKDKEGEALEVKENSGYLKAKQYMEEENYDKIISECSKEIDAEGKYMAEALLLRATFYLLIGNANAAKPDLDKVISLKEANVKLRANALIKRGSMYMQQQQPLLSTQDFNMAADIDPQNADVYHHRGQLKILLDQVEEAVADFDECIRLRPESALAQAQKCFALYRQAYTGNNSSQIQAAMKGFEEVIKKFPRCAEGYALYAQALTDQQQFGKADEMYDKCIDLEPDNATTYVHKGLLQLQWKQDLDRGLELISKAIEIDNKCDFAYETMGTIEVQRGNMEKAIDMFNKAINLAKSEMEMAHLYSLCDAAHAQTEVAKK
Test: SPR
Conditions: both partners purified

IILRLGSPLSLNMARKALNSLEDKAFQ [Orf9b T60A peptide]
binding result: binds
